Target: the molecule itself
Assay: crystal structure; ΔNC-Fab complex 10-20 mg/mL, 25%-35% PEG400, 100 mM Ca-acetate or 300 mM KCl, pH 8.5-9.5, 22°C; dataset refined to 2.5 Å

B1: ΔNC CLC-ec1 (domain or fragment, Escherichia coli, UniProt P37019 1-460, looked up)
chain: MRRRQLIRQLLERDKTPLAILFMAAVVGTLVGLAAVAFDKGVAWLQNQRMGALVHTADNYPLLLTVAFLCSAVLAMFGYFLVRKYAPEAGGSGIPEIEGALEDQRPVRWWRVLPVKFFGGLGTLGGGMVLGREGPTVQIGGNIGRMVLDIFRLKGDEARHTLLATGAAAGLAAAFNAPLAGILFIIEEMRPQFRYTLISIKAVFIGVIMSTIMYRIFNHEVALIDVGKLSDAPLNTLWLYLILGIIFGIFGPIFNKWVLGMQDLLHRVHGGNITKWVLMGGAIGGLCGLLGFVAPATSGGGFNLIPIATAGNFSMGMLVFIFVARVITTLLCFSSGAPGGIFAPMLALGTVLGTAFGMVAVELFPQYHLEAGTFAIAGMGALLAASIRAPLTGIILVLEMTDNYQLILPMIITGLGATLLAQFTGGKPLYSAILARTLAKQEAEQ
notes: CLC-ec1, Cl-/H+ antiporter of Escherichia coli; Homodimer in the crystal (chains A and B); also called trimmed construct; source: E. coli, purified in decylmaltoside (His-tag removed, Superdex 200 gel filtration)
  binding result: binds
